Assay [1] concerns the target T1, NCR1 extracellular domain fused to a generic transmembrane domain, on tetracycline-inducible FlpIn cells (human, UniProt O76036 22-258).
T1 construct: extracellular domain; HEK293 FlpIn cells, expression on tetracycline addition; also called NCR1 over expression cell line; not shown: transmembrane domain of platelet-derived growth factor (so in the source) with a HA tag
Put plainly: flow cytometry, Fab on tetracycline-inducible cells over-expressing the ECD (FIG. S5). The method, then: (§1) To investigate the specificity of both activating and non-functional antibodies for their receptor targets, we developed a tetracycline-inducible cell line for each protein target—CD16, NCR1, NCR3, CD244, TNFRSF9, and TNFSF4. The ECDs of these proteins were fused to a generic transmembrane domain and were expressed upon tetracycline addition.
(§2) Titrations were performed on primary human NK cells or tetracycline induced overexpression cell lines as indicated. When tetracycline induced overexpression cell lines were used, cells were dosed with 10 μg/mL tetracycline for 2 days prior to staining. The starting concentration of each Fab or bispecific antibody was 1 μM, and serial 1:5 dilutions were performed. Antibodies were incubated with cells for 1 hr at 4° C., washed 2 times in 3% BSA in PBS pH 7.4, and stained for 30 min with an Alexafluor-647 conjugated goat anti-human IgG F(ab′)2 fragment (Jackson ImmunoResearch Laboratories) at a 1:50 dilution. After an additional 3 washes, cells were fixed and fluorescence was quantified using a CytoFLEX (Beckman Coulter). All flow cytometry data were analyzed using FlowJo software.
Background: In flow cytometry, cells or beads pass a laser one at a time.

Assay [2] concerns the target T2, CD244 extracellular domain fused to a generic transmembrane domain, on tetracycline-inducible FlpIn cells (UniProt Q9BZW8 22-229).
T2 construct: extracellular domain; not shown: transmembrane domain of platelet-derived growth factor (so in the source) with a HA tag
T2 sequence (looked up): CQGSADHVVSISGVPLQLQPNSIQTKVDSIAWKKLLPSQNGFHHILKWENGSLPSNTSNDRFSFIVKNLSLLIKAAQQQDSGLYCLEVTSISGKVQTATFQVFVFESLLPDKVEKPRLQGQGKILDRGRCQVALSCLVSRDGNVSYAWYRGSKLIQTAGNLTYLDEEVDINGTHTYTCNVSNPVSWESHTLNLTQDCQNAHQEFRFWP
Put plainly: flow cytometry, Fab on tetracycline-inducible cell lines over-expressing each ECD (FIG. S5). The method, then: as §1, §2

The target of assay [3] is T3, TNFRSF9 extracellular domain fused to a generic transmembrane domain, on tetracycline-inducible FlpIn cells (UniProt Q07011 24-186).
T3 construct: extracellular domain; also called 4-1BB; not shown: transmembrane domain of platelet-derived growth factor (so in the source) with a HA tag
The assay is described as above. The method, then:
as §1, §2

Assay [4] addresses T4, CD16 extracellular domain fused to a generic transmembrane domain, on tetracycline-inducible FlpIn cells (human, UniProt P08637 17-208).
T4 construct: extracellular domain; HEK293 FlpIn cells, expression on tetracycline addition; also called CD16 over expression cell line; CD16A; not shown: transmembrane domain of platelet-derived growth factor (so in the source) with a HA tag
The assay is described as above. As to the method: as §1, §2

Assay [5] has as its target T5, NCR3 extracellular domain fused to a generic transmembrane domain, on tetracycline-inducible FlpIn cells (human, UniProt O14931 19-135).
T5 construct: extracellular domain; HEK293 FlpIn cells, expression on tetracycline addition; also called NCR3 over expression cell line; not shown: transmembrane domain of platelet-derived growth factor (so in the source) with a HA tag
T5 sequence (looked up): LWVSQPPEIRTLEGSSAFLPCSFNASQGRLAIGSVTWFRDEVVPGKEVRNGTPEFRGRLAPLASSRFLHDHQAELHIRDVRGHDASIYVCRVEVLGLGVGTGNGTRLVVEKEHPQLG
The assay is described as above. As to the method:
as §1, §2

The target in assay [6] is T6, TNFSF4 extracellular domain fused to a generic transmembrane domain, on tetracycline-inducible FlpIn cells (UniProt P23510 51-183).
T6 construct: extracellular domain; also called OX40L; not shown: transmembrane domain of platelet-derived growth factor (so in the source) with a HA tag
T6 sequence (looked up): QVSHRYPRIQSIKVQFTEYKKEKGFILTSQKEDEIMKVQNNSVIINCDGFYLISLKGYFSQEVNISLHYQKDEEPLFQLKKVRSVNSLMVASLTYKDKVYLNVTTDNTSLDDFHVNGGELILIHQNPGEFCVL
The description is as above. As to the method: as §1, §2

Assay [7] deals with T7, NCR1 extracellular domain TEV-cleavable Fc-fusion, biotinylated (human, UniProt O76036 22-258, biotinylated (site not stated)).
T7 construct: extracellular domain; Antigen of the phage selections and Fab-phage ELISAs; not shown: TEV cleavage site and Fc domain
The experiment in a line: Fab-phage selection and Fab-phage ELISA on biotinylated ECD Fc-fusion (antigen column of Table S1). As to the method:
To generate antibodies against these antigens, we expressed the extracellular domains (ECDs) of these proteins as TEV-cleavable Fc-fusions and performed Fab-phage display selections to enrich for high affinity antibody binders (FIG. S1), as previously described [Hornsby, M. et al., Mol Cell Proteomics. 14(10), 2833-2847 (2015)]. After each selection, Fab-phage ELISAs were performed to determine the relative affinity and selectivity of these binders for their antigen targets (FIG. S2).
TEV-cleavable Fc-fusion proteins were expressed and biotinylated in Expi293F cells using the standard expression protocol. Media were harvested after 4 days of expression and protein was purified by protein A affinity chromatography. Phage selections were performed according to previously established protocols1 with the Fab-phage Library E2. Non-specific binders were depleted from the library by incubating the phage pool with Fc-domain immobilized on streptavidin beads. Fab phage were selected using biotinylated Fc-fusions that were captured on streptavidin-coated magnetic beads, and were released through TEV elution. Each selection consists of four rounds. With each round, decreasing amounts of Fc-fusions (1 μM, 100 nM, 10 nM, and […]) were used. ELISAs were performed for 96 individual Fab-phage clones from the third or fourth rounds of selection to evaluate for affinity and selectivity.
ELISAs were performed as previously described1. In brief, Maxisorp plates were coated with 10 μg/mL of Neutravidin overnight at 4° C. Biotinylated target antigen (20 nM) was captured on the Neutravidin coated plates for 30 min, and then exposed to a 1:5 dilution of phage supernatants for 30 min. Bound phage were detected via a horseradish-peroxidase-conjugated anti-phage monoclonal antibody (GE Lifesciences).
On the technique in general: An ELISA detects its analyte on a solid surface through an enzyme-linked reagent.

The target of assay [8] is T8, NCR1 as expressed on NK cells (human, UniProt O76036 22-304).
T8 construct: whole, on cells; Primary human peripheral blood NK cells; NKL cells stably transduced with NCR1 in the bispecific cytotoxicity assay; also called peripheral blood NK cells; NCR1+ NKL cells
Put plainly: flow cytometry, Fab titration on peripheral blood NK cells (FIG. S6). As to the method:
To evaluate the affinity of the selected antibodies for NK cells, we titrated the nine Fab clones on peripheral blood NK cells.
as §2

T7 sequence (O76036 22-258): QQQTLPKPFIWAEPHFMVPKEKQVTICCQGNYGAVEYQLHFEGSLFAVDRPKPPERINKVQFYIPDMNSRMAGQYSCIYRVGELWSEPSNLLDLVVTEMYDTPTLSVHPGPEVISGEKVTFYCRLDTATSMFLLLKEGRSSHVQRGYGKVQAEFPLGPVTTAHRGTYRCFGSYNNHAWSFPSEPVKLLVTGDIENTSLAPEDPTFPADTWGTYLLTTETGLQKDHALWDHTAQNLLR
T1 sequence (O76036 22-258): as above
T8 sequence (O76036 22-304): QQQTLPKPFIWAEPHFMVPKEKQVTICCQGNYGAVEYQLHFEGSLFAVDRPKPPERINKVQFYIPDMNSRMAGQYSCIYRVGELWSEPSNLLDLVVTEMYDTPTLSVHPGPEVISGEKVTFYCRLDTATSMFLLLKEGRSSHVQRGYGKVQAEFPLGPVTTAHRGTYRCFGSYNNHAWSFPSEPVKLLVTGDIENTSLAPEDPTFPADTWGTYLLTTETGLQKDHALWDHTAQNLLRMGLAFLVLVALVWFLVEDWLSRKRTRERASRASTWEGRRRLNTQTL
T4 sequence (P08637 17-208): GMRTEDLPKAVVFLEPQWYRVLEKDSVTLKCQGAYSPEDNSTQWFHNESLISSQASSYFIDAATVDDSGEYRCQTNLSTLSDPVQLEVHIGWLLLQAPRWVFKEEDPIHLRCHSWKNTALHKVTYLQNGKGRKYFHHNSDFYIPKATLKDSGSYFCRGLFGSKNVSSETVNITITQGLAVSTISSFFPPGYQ

B1: NCR1.11 Fab (Fab)
heavy: EVQLVESGGGLVQPGGSLRLSCAASGFNVYYSYIHWVRQAPGKGLEWVASISSYYGSTYYADSVKGRFTISADTSKNTAYLQMNSLRAEDTAVYYCARSRYLQDYWSSWWVSWYGLDYWGQGTLVTVSSASTKGPSVFPLAPSSKSTSGGTAALGCLVKDYFPEPVTVSWNSGALTSGVHTFPAVLQSSGLYSLSSVVTVPSSSLGTQTYICNVNHKPSNTKVDKKVEPKSCDKTHT
light: DIQMTQSPSSLSASVGDRVTITCRASQSVSSAVAWYQQKPGKAPKLLIYSASSLYSGVPSRFSGSRSGTDFTLTISSLQPEDFATYYCQQSSSSLITFGQGTKVEIKRTVAAPSVFIFPPSDSQLKSGTASVVCLLNNFYPREAKVQWKVDNALQSGNSQESVTEQDSKDSTYSLSSTLTLSKADYEKHKVYACEVTHQGLSSPVTKSFNRGEC
notes: also called anti-NCR1 Fab #27
For B1, the binding result was “binds” in assay [1]; “no binding” in assay [2]; “no binding” in assay [3]; “no binding” in assay [4]; “no binding” in assay [5]; “no binding” in assay [6]. Besides, the binding result in assay [7] and in assay [8] was “binds” each time.

(Values after patent US20240279331A1 (University of California, published 2024).)
